Measurements: article PMC5269641

Assays:
[1] = biological target: reaction center-light harvesting 1-PufX (RC-LH1-PufX) complex (Rhodobacter sphaeroides) (UniProt P0C0Y7); test: atomic force microscopy; tapping mode AFM of intact native chromatophore vesicles immobilised on mica; imaging buffer 300 mM KCl/20 mM MOPS pH 7.4, with and without 10 mM MgCl2; proteins in their native membrane
[2] = biological target: subunit of the light-harvesting 2 (LH2) complex (Rhodobacter sphaeroides); test: atomic force microscopy; tapping mode AFM of reconstituted flat LH2 membranes (2D crystals) immobilised on a mica substrate, same approach as for chromatophores
[3] = biological target: subunit of the light-harvesting 2 (LH2) complex (Rhodobacter sphaeroides); test: atomic force microscopy; tapping mode AFM of intact native chromatophore vesicles immobilised on mica; imaging buffer 300 mM KCl/20 mM MOPS pH 7.4, with and without 10 mM MgCl2; proteins in their native membrane
[4] = biological target: subunit of the light-harvesting 2 (LH2) complex (Rhodobacter sphaeroides); test: atomic force microscopy; tapping mode AFM of reconstituted flat LH2 membranes (2D crystals) immobilised on a mica substrate, same approach as for chromatophores; remark: listed apart in the source
[5] = biological target: subunit of the light-harvesting 2 (LH2) complex (Rhodobacter sphaeroides); test: atomic force microscopy; tapping mode AFM of intact native chromatophore vesicles immobilised on mica; imaging buffer 300 mM KCl/20 mM MOPS pH 7.4, with and without 10 mM MgCl2; proteins in their native membrane; remark: listed apart in the source

stoichiometry N [1]	stoichiometry N [2]	stoichiometry N [3]	stoichiometry N [4]	stoichiometry N [5]	Substance
2	–	–	–	–	reaction center-light harvesting 1-PufX (RC-LH1-PufX) complex (from UniProt P0C0Y7 1-260; P13402 1-82)
–	9	8.6	8.3	9	subunit of the light-harvesting 2 (LH2) complex
